From paper PMC10942449 (bioRxiv, 2024)

Assays:
[1] = target: sc9–10 DS-Cav1-His6 (respiratory syncytial virus subtype A, strain A2 | not stated) (UniProt P03420); experiment: cross-linking
[2] = target: sc9–10 DS-Cav1-His6 (respiratory syncytial virus subtype A, strain A2 | not stated) (UniProt P03420); experiment: SEC
[3] = target: sc9–10 DS-Cav1 (respiratory syncytial virus subtype A, strain A2 | not stated) (UniProt P03420); experiment: SEC
[4] = target: DS-Cav1 (respiratory syncytial virus subtype A, strain A2 | not stated) (UniProt P03420); experiment: SEC
[5] = target: DS-Cav1-His6 (respiratory syncytial virus subtype A, strain A2 | not stated) (UniProt P03420); experiment: cross-linking
[6] = target: DS-Cav1-His6 (respiratory syncytial virus subtype A, strain A2 | not stated) (UniProt P03420); experiment: SEC
UFCM1 = UFCM1 (human metapneumovirus, …, UniProt Q1A2Z0, E80D | T127C | N153C | A185P); experiment: ELISA
UFCM1-P2 = UFCM1-P2 (human metapneumovirus, …, UniProt Q1A2Z0, E80D | T127C | N153C | A185P | V155P); experiment: ELISA

Work on “sc9–10 DS-Cav1-His6 (from UniProt P03420 26-513) (domain or fragment)” yielded a stoichiometry N [1] of 3 and a stoichiometry N [2] of 3.

“sc9–10 DS-Cav1 (from UniProt P03420 26-513) (domain or fragment)” was tested, and the stoichiometry N [3] was 3.

“DS-Cav1 (from UniProt P03420 26-513) (domain or fragment)” was tested, and the stoichiometry N [4] was 3.

Work on “DS-Cav1-His6 (from UniProt P03420 26-513) (domain or fragment)” yielded a stoichiometry N [5] of 3 and a stoichiometry N [6] of 3.

B1: MPE8 IgG (antibody, V domains shown)
VH: EVQLVESGGGLVKPGGSLRLSCAASGFTFSSYSMNWVRQAPGKGLEWVSSISASSSYSDYADSAKGRFTISRDNAKTSLFLQMNSLRAEDTAIYFCARARATGYSSITPYFDIWGQGTLVTVSS
VL: QSVVTQTPSVSGAPGQRVTISCTGSSSNIGAGYDVHWYQQLPGTAPKLLIYDNNNRPSGVPDRFSASKSGTSASLAITGLQAEDEADYYCQSYDRNLSGVFGTGTKVTVL
B1: binds (UFCM1); binds (UFCM1-P2).
